{
  "source": "patent US20230120736A1",
  "about": "“ANTI-CD98 ANTIBODIES AND ANTIBODY DRUG CONJUGATES” (AbbVie Inc., priority 2016, published 2023)",
  "molecules": {"B1": {"name": "Ab10-CZ (conjugate)", "VH": "EVQLVESGGGLVQPGRSLKLSCAASGFTFSDYAMAWVRQAPKKSLEWVATIIYDGRGTYCRDSVKGRFTISRDNAKSTLYLQMDSLRSEDTATYYCARQGDGTYHYWGYFDYWGQGVMVTVSS", "VL": "DIVMTQSPSSLAVSAGETVTINCKSSQSLLSSGNQKNYLAWYQQKPGQSPKLLIYWASTRQSGVPDRFIGSGSGTDFTLTISSVQAEDLAIYYCQQYYDTPYTFGAGTKVDLK"}, "B2": {"name": "Ab15-CZ (conjugate)", "VH": "B1 VH with A33T, S44G, C60Y, G100S, H105Y", "VL": "B1 VL with S31F, S82R, T100S, V110L, D111E"}, "B3": {"name": "Ab11-CZ (conjugate)", "VH": "B1 VH with S44G, T50G, C60Y, H105Y", "VL": "B1 VL with K24R, V110L, D111E"}, "B4": {"name": "ChAb15-CZ (conjugate)", "VH": "B1 VH with A33T, S44G, C60Y, G100S, H105Y", "VL": "B1 VL with S31F, S82R, T100S, V110L, D111E"}, "B5": {"name": "ChAb12-CZ (conjugate)", "VH": "B1 VH with S44G, T50S, C60Y, H105Y, Y109S", "VL": "B1 VL with Y93H, V110L, D111E"}, "B6": {"name": "Ab12-CZ (conjugate)", "VH": "B1 VH with S44G, T50S, C60Y, H105Y, Y109S", "VL": "B1 VL with Y93H, V110L, D111E"}, "B7": {"name": "Ab14-CZ (conjugate)", "VH": "EVKLQQSGDELVRPGASVKISCKASGYTFTSYSMHWVKERPGQGLEWIGAIFPIIGTTEYNQKFKGKATLTADKSSNTANMELSRLTSEDSAVYYCARVYLSYFDYWGQGVMVTVSS", "VL": "DIQMTQSPSFLSASVGDRVTINCKASQNINKYLDWYQRKHGEAPKLLIYNTNNLQTGIPSRFSGSGSGTDYTLTISSLQPEDVATYFCLQHSSRYTFGAGTKLELK"}, "B8": {"name": "Ab13-CZ (conjugate)", "VH": "QVQLKESGPGLVQPSQTLSLTCTVSGFSLSSYGVIWVRQPPGKGLEWMGIIWANGNTNYNSALKSRLSISRDTSKSQVYLKMNSLQTEDTATYYCARHYYDGTHYYGYFDYWGQGVMVTVSS", "VL": "DTVMTQTPSSQAVSAGEKVTMSCKSSQSLLYSENKKKYLAWYQQKPGQSPKLLIYWASTRESGVPDRFIGSGSGTDFTLTISSVQAEDLAVYYCQQYYNFPYTFGAGTKLELK"}},
  "key": {"[1]": {"system": "NCI-H146 (human small cell lung cancer) xenograft", "test": "NCI-H146 xenograft tumor growth inhibition", "type": "in vivo, mouse", "settings": "SCID-bg mice", "protocol": "The in vivo efficacy of anti-CD98 hybridoma mAb conjugates were tested using Ab3-CZ and Ab5-CZ as examples in NCI-H146 (human small cell lung cancer) xenograft model. […] The cells were cultured as monolayers in RPMI-1640 culture media (Invitrogen, Carlsbad, Calif.) that was supplemented with 10% Fetal Bovine Serum (FBS, Hyclone, Logan, Utah). To generate xenografts, 5×10^6 (NCI-H146) viable cells were inoculated subcutaneously into the right flank of immune deficient female SCID-bg mice (Charles River Laboratories, Wilmington, Mass.). The injection volume was 0.2 mL and composed of Matrigel (BD, Franklin Lakes, N.J.). Tumors were size matched at approximately 212 mm^3. Antibodies and conjugates were formulated in phosphate buffered saline, pH 7.2 and injected intraperitoneally. […] Therapy began within 24 hours after size matching of the tumors. Mice weighed approximately 21 g at the onset of therapy. Tumor volume was estimated two to three times weekly. Measurements of the length (L) and width (W) of the tumor were taken via electronic caliper and the volume was calculated according to the following equation: V=L×W^2/2. Mice were euthanized when tumor volume reached 3,000 mm^3 or skin ulcerations occurred. Eight mice were housed per cage. Food and water were available ad libitum. Mice were acclimated to the animal facilities for a period of at least one week prior to commencement of experiments. Animals were tested in the light phase of a 12-hour light: 12-hour dark schedule (lights on at 06:00 hours). Anti-CD98 conjugates (10 mg/kg) were administered as a single dose (QDx1) intraperitoneally. A human IgG control antibody (MSL109, a humanized IgG1 antibody that binds to cytomegalovirus (CMV) glycoprotein H) was used as a negative control agent.\n(§1) To refer to efficacy of therapeutic agents, parameters of amplitude (TGImax), durability (TGD) and response frequency (CR, PR, OR) of therapeutic response are used. The efficacy of inhibition of NCI-H146 xenografts growth with CD98-targeted ADCs is illustrated by Table 6, below. In the tables, to refer to efficacy, parameters of amplitude (TGImax) and durability (TGD) of therapeutic response are used. TGImax is the maximum tumor growth inhibition during the experiment. Tumor growth inhibition is calculated by 100*(1−Tv/Cv) where Tv and Cv are the mean tumor volumes of the treated and control groups, respectively. TGD or tumor growth delay is the extended time of a treated tumor needed to reach a volume of 1 cm^3 relative to the control group. TGD is calculated by 100*(Tt/Ct−1) where Tt and Ct are the median time periods to reach 1 cm^3 of the treated and control groups, respectively. Distribution of the response amplitude in a specific group is given by the frequency of complete responders (CR), partial responders (PR), and overall responders (OR). CR is the percentage of mice within a group with a tumor burden of 25 mm^3 for at least three measurements. PR is the percentage of mice within a group with a tumor burden larger than 25 mm^3 but less than one-half of the volume at onset of treatment for at least three measurements. OR is the sum of CR and PR.\nThe in vivo anti-tumor efficacy of selected humanized anti-CD98 mAb conjugates were tested in NCI-H146 (human small cell lung cancer) xenograft model, as described in Example 6. Tumor growth inhibition was reported as TGImax in Table 28."}, "[2]": {"test": "Size exclusion chromatography, % aggregate fraction of ADC", "type": "physicochemical", "settings": "hybridoma mAb conjugated with synthon CZ, Method A", "protocol": "Size exclusion chromatography was performed using a Shodex KW802.5 column in 0.2M potassium phosphate pH 6.2 with 0.25 mM potassium chloride and 15% IPA at a flow rate of 0.75 ml/min. The peak area absorbance at 280 nm was determined for each of the high molecular weight and monomeric eluents by integration of the area under the curve. The % aggregate fraction of the conjugate sample was determined by dividing the peak area absorbance at 280 nm for the high molecular weight eluent by the sum of the peak area absorbances at […] of the high molecular weight and monomeric eluents multiplied by 100%."}, "[3]": {"system": "HCC38 breast cancer cell line", "test": "Growth inhibition assay (CellTiter-Glo)", "settings": "read-out: ADC potency, IC50, HCC38, 4-days treatment, 3000 cells per well"}, "[4]": {"system": "Jurkat acute T cell leukemia cell line", "test": "Growth inhibition assay (CellTiter-Glo)", "settings": "read-out: ADC potency, IC50, Jurkat, 5-days treatment, 3000 cells per well"}, "[5]": {"system": "EBC-1 (human lung squamous cell carcinoma) xenograft", "test": "EBC-1 xenograft tumor growth inhibition", "type": "in vivo, mouse", "settings": "SCID-bg mice; for Growth Inhibition TGImax / Response Frequency CR / Response Frequency PR / Tumor growth delay (TGD): 10 mg/kg IP QDx1; for Response Frequency OR: 10 mg/kg IP QDx1, sum of CR and PR", "protocol": "as §1, with “The efficacy of inhibition of NCI-H146 xenografts growth with CD98-targeted ADCs is illustrated by Table 6, below.” left out\nEBC-1 was obtained from the Japanese Collection of Research Bioresources Cell Bank (JCRB, Osaka, Japan) and were cultured using MEM culture media with 10% FBS. To generate xenografts, 5×10^6 EBC-1 viable cells were inoculated subcutaneously into the right flank of immune deficient female SCID-bg mice (Charles River Laboratories, Wilmington, Mass.). The injection volume was 0.2 mL and the inoculum was composed of 1:1 mixture of S-MEM and Matrigel. Tumors were size matched at approximately 200 mm^3. Antibodies and conjugates were formulated in phosphate buffered saline, pH 7.2 and injected intraperitoneally. […] Therapy began within 24 hours after size matching of the tumors. Mice weighed approximately 21-22 g at the onset of therapy. Tumor volume was estimated two to three times weekly. Measurements of the length (L) and width (W) of the tumor were taken via electronic caliper and the volume was calculated according to the following equation: V=L×W^2/2. Mice were euthanized when tumor volume reached 3,000 mm^3 or skin ulcerations occurred. Eight mice were housed per cage. Food and water were available ad libitum. Mice were acclimated to the animal facilities for a period of at least one week prior to commencement of experiments. Animals were tested in the light phase of a 12-hour light: 12-hour dark schedule (lights on at 06:00 hours). Anti-CD98 conjugates (10 mg/kg) were administered as a single dose (QDx1) intraperitoneally. A human IgG control antibody (AB095, a human IgG1 antibody recognizing tetanus toxoid See Larrick et al., 1992, Immunological Reviews 69-85) was used as a negative control agent.\nTo refer to efficacy of therapeutic agents, parameters of amplitude (TGImax), durability (TGD) and response frequency (CR, PR, OR) of therapeutic response are used as described in the Example 6."}},
  "note": "Residue numbers refer to the chain shown, from its start. Marks after values point to notes of the source that are not given here.",
  "data": [
    {"molecule": "MSL109: \"a humanized IgG1 antibody that binds to cytomegalovirus (CMV) glycoprotein H\", \"negative control agent\" [reference compound]", "values": [
      {"measurement": "Growth Inhibition TGD", "setting": "[1]; 10 mg/kg IP QDx1", "value": 0, "unit": "%"},
      {"measurement": "Growth Inhibition TGImax", "setting": "[1]; 10 mg/kg IP QDx1", "value": 0, "unit": "%"},
      {"measurement": "Response Frequency CR", "setting": "[1]; 10 mg/kg IP QDx1", "value": 0, "unit": "%"},
      {"measurement": "Response Frequency PR", "setting": "[1]; 10 mg/kg IP QDx1", "value": 0, "unit": "%"},
      {"measurement": "Response Frequency OR", "setting": "[1]; 10 mg/kg IP QDx1, sum of CR and PR", "value": 0, "unit": "%"}
    ]},
    {"molecule": "B1", "values": [
      {"measurement": "% Aggregates by SEC", "setting": "[2]", "value": 4.7, "unit": "%"},
      {"measurement": "IC50", "setting": "[3]", "value": 1.16, "unit": "nM"},
      {"measurement": "IC50", "setting": "[4]", "value": 0.148, "unit": "nM"}
    ]},
    {"molecule": "B2", "values": [
      {"measurement": "% Aggregates by SEC", "setting": "[2]", "value": 5.7, "unit": "%"},
      {"measurement": "IC50", "setting": "[3]", "value": 1.06, "unit": "nM"},
      {"measurement": "IC50", "setting": "[4]", "value": 0.076, "unit": "nM"}
    ]},
    {"molecule": "B3", "values": [
      {"measurement": "% Aggregates by SEC", "setting": "[2]", "value": 4.2, "unit": "%"},
      {"measurement": "IC50", "setting": "[3]", "value": 1.14, "unit": "nM"},
      {"measurement": "IC50", "setting": "[4]", "value": 0.311, "unit": "nM"}
    ]},
    {"molecule": "B4", "values": [
      {"measurement": "Growth Inhibition TGImax", "setting": "[5]", "value": "70* %"},
      {"measurement": "Response Frequency CR", "setting": "[5]", "value": 0, "unit": "%"},
      {"measurement": "Response Frequency PR", "setting": "[5]", "value": 0, "unit": "%"},
      {"measurement": "Tumor growth delay (TGD)", "setting": "[5]", "value": "74* %"},
      {"measurement": "Response Frequency OR", "setting": "[5]", "value": 0, "unit": "%"}
    ]},
    {"molecule": "B5", "values": [
      {"measurement": "Growth Inhibition TGImax", "setting": "[5]", "value": "76* %"},
      {"measurement": "Response Frequency CR", "setting": "[5]", "value": 0, "unit": "%"},
      {"measurement": "Response Frequency PR", "setting": "[5]", "value": 25, "unit": "%"},
      {"measurement": "Tumor growth delay (TGD)", "setting": "[5]", "value": "74* %"},
      {"measurement": "Response Frequency OR", "setting": "[5]", "value": 25, "unit": "%"}
    ]},
    {"molecule": "B6", "values": [
      {"measurement": "% Aggregates by SEC", "setting": "[2]", "value": 2.9, "unit": "%"},
      {"measurement": "IC50", "setting": "[3]", "value": 0.685, "unit": "nM"},
      {"measurement": "IC50", "setting": "[4]", "value": 0.094, "unit": "nM"}
    ]},
    {"molecule": "B7", "values": [
      {"measurement": "% Aggregates by SEC", "setting": "[2]", "value": 8.8, "unit": "%"},
      {"measurement": "IC50", "setting": "[3]", "value": 0.798, "unit": "nM"},
      {"measurement": "IC50", "setting": "[4]", "value": 0.063, "unit": "nM"}
    ]},
    {"molecule": "B8", "values": [
      {"measurement": "% Aggregates by SEC", "setting": "[2]", "value": 4.7, "unit": "%"},
      {"measurement": "IC50", "setting": "[3]", "value": 0.787, "unit": "nM"},
      {"measurement": "IC50", "setting": "[4]", "value": 0.149, "unit": "nM"}
    ]}
  ]
}
